Source: US11723913

Molecular target: murine protein S (mouse) (UniProt Q08761)
Experiment: cell-based or functional assay

Chain of UniProt Q08761 (Q08761 42-675 limits assumed): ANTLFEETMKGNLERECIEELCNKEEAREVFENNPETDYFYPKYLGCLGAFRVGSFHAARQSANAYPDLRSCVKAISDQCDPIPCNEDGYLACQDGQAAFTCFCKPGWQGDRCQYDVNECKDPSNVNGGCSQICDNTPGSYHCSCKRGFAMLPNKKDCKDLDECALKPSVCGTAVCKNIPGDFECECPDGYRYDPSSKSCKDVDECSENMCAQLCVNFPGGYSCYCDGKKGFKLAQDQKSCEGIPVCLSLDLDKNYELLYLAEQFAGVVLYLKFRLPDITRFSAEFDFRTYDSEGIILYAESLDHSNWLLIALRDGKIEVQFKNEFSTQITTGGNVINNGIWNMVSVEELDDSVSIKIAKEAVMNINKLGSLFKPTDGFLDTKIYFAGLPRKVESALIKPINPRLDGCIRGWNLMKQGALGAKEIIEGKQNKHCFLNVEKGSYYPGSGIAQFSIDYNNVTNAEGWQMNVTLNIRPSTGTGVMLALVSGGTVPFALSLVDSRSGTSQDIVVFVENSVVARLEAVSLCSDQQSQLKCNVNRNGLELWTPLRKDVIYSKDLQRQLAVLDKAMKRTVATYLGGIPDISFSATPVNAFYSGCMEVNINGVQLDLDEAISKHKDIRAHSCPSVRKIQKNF

| reduction of ETP in Ca2+ ionophore-activated PRP of WT mice at 8 nM APC [%] | Substance |
| --- | --- |
| 30 | mutated recombinant mouse APC (rmAPC L38D) (from UniProt P33587 42-460) |
| 90 | wild type recombinant mouse APC (wt-rmAPC) (from UniProt P33587 42-460) |
